Data: article PMC3587646, “Structural Characterization of a Recombinant Fusion Protein by Instrumental Analysis and Molecular Modeling” (PLoS ONE, 2013)

Target: VEGF-A (UniProt P15692 1-395)
Assay: SPR; unpublished data of the authors; format and conditions not told
Details: both partners purified

B1: Conbercept (Fc fusion)
chain: GRPFVEMYSEIPEIIHMTEGRELVIPCRVTSPNITVTLKKFPLDTLIPDGKRIIWDSRKGFIISNATYKEIGLLTCEATVNGHLYKTNYLTHRQTNTIIDVVLSPSHGIELSVGEKLVLNCTARTELNVGIDFNWEYPSSKHQHKKLVNRDLKTQSGSEMKKFLSTLTIDGVTRSDQGLYTCAASSGLMTKKNSTFVRVHEKPFVAFGSGMESLVEATVGERVRIPAKYLGYPPPEIKWYKNGIPLESNHTIKAGHVLTIMEVSERDTGNYTVILTNPISKEKQSHVVSLVVYVPP
modifications: seven N-glycosylation sites, all occupied (the N in the tryptic peptides 29-39 VTSPNITVTLK, 60-69 GFIISNATYK, 117-124 LVLNCTAR, 193-198 NSTFVR, 242-253 NGIPLESNHTIK, 267-281 DTGNYTVILTNPISK, 372-380 …); two inter-chain disulfide bonds at the Fc hinge
Kd: 0.429 nM
